US12097241B2, “Methods of treating kidney failure, and/or improving or stablizing renal function using modified relaxin polypeptides” (BRISTOL-MYERS SQUIBB COMPANY, priority 2017, dated 2024)
Entries after “also recorded” stand apart in the source; their conditions may differ.

Assays:
[1] = In vivo pharmacokinetic (PK) studies in rats; parameters: species or system Sprague-Dawley rats; conditions: rat, male Sprague-Dawley rats, single SC dose 1.0 mg/kg, serum ELISA; for AUC(0-inf): read-out: Rat PK AUC Total; for level at time molar at 24 h: read-out: Rat PK C24
How it was run: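 Male Sprague-Dawley rats (n=3) given a single 1 mg/kg IV or SC dose of relaxin constructs in 20 mM histidine, 750 mM NaCl, pH 6.0; jugular serum sampled to 72 h. Serum relaxin by ELISA; Cmax, AUCinf, C24 and half-life from non-compartmental analysis of individual profiles.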

Solubility observations = conditions: data not shown
[2] = test system: renal tubular epithelial cells; assay: Rat toxicity studies, kidney histopathology; type: in vivo, Sprague Dawley rats; conditions: rats
Experimental: FIGS. 7A-7D. PEG-related renal cortical tubule epithelial vacuolation in female Sprague Dawley rats. Kidney from rats treated subcutaneously (SQ) once a day with vehicle or relaxin analogs. […] FIG. 7A: Vehicle (150 mM Arg in 10 mM citrate buffer pH 5.5) SQ for 10 days. FIG. 7B: AQ1-PEG36-Glu-C13-COOH (1.5 kD PEG) SQ at 40 mg/kg/day for 7 days. FIG. 7C: AQ1-20-kDa-PEG (20 kD PEG) SQ at 15 mg/kg/day for 10 days. FIG. 7D: AQ1-GGGGS-Glu^γ (SEQ ID NO: 139)-C14-COOH SQ at 40 mg/kg for 7 days. Magnification 40×, H&E.
AQ1-20 kDa-PEG was given to rats by subcutaneous administration at doses of 1, 5, and 15 mg/kg/day for 10 days. Following the final dose animals were euthanized, dissected, and kidney histopathology was performed. […] In contrast, vacuoles were not observed in renal tubular epithelial cells of rats dosed with Vehicle (150 mM Arg in 10 mM citrate buffer pH 5.5) subcutaneously for 10 days (FIG. 7A).
AQ1-PEG36-Glu-C13-COOH was given to rats by subcutaneous administration at doses of 10 and 40 mg/kg/day for 7 days. Following the final dose animals were euthanized, dissected, and kidney histopathology was performed.
AQ1-GGGGS-Glu^γ (SEQ ID NO: 139)-C14-COOH was given to rats by subcutaneous administration at doses of 5, 20, and 40 mg/kg/day for 7 days. Following the final dose animals were euthanized, dissected, and kidney histopathology was performed.

[3] = in vivo; cited from earlier work

Compound	AUC(0-inf) [1] [µM·h]	level at time molar at 24 h [1] [nM]	solubility profile (Solubility observations)	vacuoles in renal tubular epithelial cells ([2]; subcutaneous 5, 20 and 40 mg/kg/day for 7 days, listed as AQ1-GGGGS-Glu^γ (SEQ ID NO: 139)-C14-COOH)	vacuoles in renal tubular epithelial cells ([2]; subcutaneous 10 and 40 mg/kg/day for 7 days)	first-phase pharmacokinetic half-life [3] [min]
CC[C@H](C)[C@@H]1NC(=O)[C@H](C)NC(=O)[C@H]([C@@H](C)CC)NC(=O)[C@H](CCC(N)=O)NC(=O)[C@H](C)NC(=O)[C@H](CCCNC(=N)N)NC(=O)[C@H](C(C)C)NC(=O)[C@H](CC(C)C)NC(=O)[C@H](CCC(=O)O)NC(=O)[C@H](CCCNC(=N)N)NC(=O)CNC(=O)[C@@H](NC(=O)[C@H](CC(C)C)NC(=O)[C@H](CCCCN)NC(=O)[C@@H](NC(=O)[C@@H](NC(=O)[C@H](CCC(=O)O)NC(=O)[C@H](CCC(=O)O)NC(=O)[C@H](CCSC)NC(=O)[C@H](Cc2c[nH]c3ccccc23)NC(=O)[C@H](CO)NC(=O)[C@H](C)N)C(C)C)[C@@H](C)CC)CSSC[C@@H]2NC(=O)[C@@H](NC(=O)[C@H](CCCCN)NC(=O)[C@H](CC(N)=O)NC(=O)[C@H](C)NC(=O)[C@H](CC(C)C)NC(=O)[C@H](C)NC(=O)[C@H](CO)NC(=O)[C@H](Cc3ccc(O)cc3)NC(=O)[C@H](CC(C)C)NC(=O)[C@@H](N)Cc3ccc(/C(C)=N/OCCNC(=O)CNC(=O)CNC(=O)CNC(=O)CNC(=O)[C@H](CO)NC(=O)CC[C@H](NC(=O)CCCCCCCCCCCCCC(=O)O)C(=O)O)cc3)CSSC[C@H](NC(=O)CNC(=O)[C@H](C(C)C)NC(=O)[C@H](Cc3c[nH]cn3)NC2=O)C(=O)N[C@@H]([C@@H](C)O)C(=O)N[C@@H](CCCCN)C(=O)N[C@@H](CCCNC(=N)N)C(=O)N[C@@H](CO)C(=O)N[C@@H](CC(C)C)C(=O)N[C@@H](C)C(=O)N[C@@H](CCCNC(=N)N)C(=O)N[C@@H](Cc2ccccc2)C(=O)N[C@H](C(=O)O)CSSC[C@@H](C(=O)NCC(=O)N[C@@H](CCSC)C(=O)N[C@@H](CO)C(=O)N[C@H](C(=O)N[C@@H](Cc2c[nH]c3ccccc23)C(=O)N[C@@H](CO)C(=O)O)[C@@H](C)O)NC1=O [AQ1-GGGGS-Glu^γ-C14-COOH]	2.31	17	favorable solubility profile	Vacuoles are not observed; also recorded: no evidence of test-article related vacuoles	–	–
CC[C@H](C)[C@@H]1NC(=O)[C@H](C)NC(=O)[C@H]([C@@H](C)CC)NC(=O)[C@H](CCC(N)=O)NC(=O)[C@H](C)NC(=O)[C@H](CCCNC(=N)N)NC(=O)[C@H](C(C)C)NC(=O)[C@H](CC(C)C)NC(=O)[C@H](CCC(=O)O)NC(=O)[C@H](CCCNC(=N)N)NC(=O)CNC(=O)[C@@H](NC(=O)[C@H](CC(C)C)NC(=O)[C@H](CCCCN)NC(=O)[C@@H](NC(=O)[C@@H](NC(=O)[C@H](CCC(=O)O)NC(=O)[C@H](CCC(=O)O)NC(=O)[C@H](CCSC)NC(=O)[C@H](Cc2c[nH]c3ccccc23)NC(=O)[C@H](CO)NC(=O)[C@H](C)N)C(C)C)[C@@H](C)CC)CSSC[C@@H]2NC(=O)[C@@H](NC(=O)[C@H](CCCCN)NC(=O)[C@H](CC(N)=O)NC(=O)[C@H](C)NC(=O)[C@H](CC(C)C)NC(=O)[C@H](C)NC(=O)[C@H](CO)NC(=O)[C@H](Cc3ccc(O)cc3)NC(=O)[C@H](CC(C)C)NC(=O)[C@@H](N)Cc3ccc(/C(C)=N/OCCNC(=O)CCOCCOCCOCCOCCOCCOCCOCCOCCOCCOCCOCCOCCOCCOCCOCCOCCOCCOCCOCCOCCOCCOCCOCCOCCOCCOCCOCCOCCOCCOCCOCCOCCOCCOCCOCCOCCNC(=O)CC[C@H](NC(=O)CCCCCCCCCCCCC(=O)O)C(=O)O)cc3)CSSC[C@H](NC(=O)CNC(=O)[C@H](C(C)C)NC(=O)[C@H](Cc3c[nH]cn3)NC2=O)C(=O)N[C@@H]([C@@H](C)O)C(=O)N[C@@H](CCCCN)C(=O)N[C@@H](CCCNC(=N)N)C(=O)N[C@@H](CO)C(=O)N[C@@H](CC(C)C)C(=O)N[C@@H](C)C(=O)N[C@@H](CCCNC(=N)N)C(=O)N[C@@H](Cc2ccccc2)C(=O)N[C@H](C(=O)O)CSSC[C@@H](C(=O)NCC(=O)N[C@@H](CCSC)C(=O)N[C@@H](CO)C(=O)N[C@H](C(=O)N[C@@H](Cc2c[nH]c3ccccc23)C(=O)N[C@@H](CO)C(=O)O)[C@@H](C)O)NC1=O [AQ1-PEG36-Glu-C13-COOH]	1	9.7	–	–	marked cortical tubular vacuolation; also recorded: Vacuoles were observed	–
Serelaxin	–	–	–	–	–	5 to 15
